The supplement of paper PMC9170038

system: MS2 coat protein; experiment: apparent KD of MS2 coat protein; higher = weaker reporter binding; conditions: Eterna round: R107; input ligand: arginine 13.2 mM
Method: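 RNA-MaP round R107: designed RNA switches with theophylline, tryptophan, arginine or FMN aptamers are transcribed on-chip within common flanks. They are titrated with SNAP-549-labelled MS2 coat protein in RNA-MaP buffer (100 mM Tris pH 7.5, 80 mM KCl, 4 mM MgCl2), without ligand or with the indicated ligand. Median apparent KD per design.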

Going from “CUCUGAGUGAUCGCUCACUCAGAGGCGGAUACCAGCGAGGUCCAUCGCCCUUGGCAGCCGAACAUGAGGAUCACCCAUGUCGGUA [#1 Same State - Theophylline A Attempt #20 (HarryS)]” to “UUUUUUUUGGGAAGGAGCGGGAACAUGUGGAUCUCCCAUGUACAUGAGGAUCACCCAUGUACCCAGGUAGGUCGCUCAUUUUUUU [Exclusion - Arginine B]”, the “apparent KD of MS2 coat protein” value rises from 8.77 nM to 28.4 nM (3.2-fold).

Going from “UGGCGAGAAGGAAGGAGCGUCAGCUGAGUCACAUGAGGAUCACCCAUGUCGCACAUAGUGUGACAGGUAGGUCGCCUUCUGCCCU [Beinmain]” to “CAACAAGUAACUGAUACCAGUGUACUGACAUGAGGAUCACCCAUGUUGGGUUUUGUUGUACACCCUUGGCAGCAGAAUCUUGUUG [AstrosExyTheB#21]”, the “apparent KD of MS2 coat protein” value falls from 84.9 nM to 44.7 nM (1.9-fold).

“UCGUUUGAGGCGGCCGCCACUGGUCUCAUGGUCAACAUGAGGAUCACCCAUGUAUCUUUGCCAAGCAGGACCGGGCCUCGAGCGA [#20 Exclusion Tryptophan B]” and “ACAGGAAACGGAAGGAGCGGAAUUGCAACAUGAGGAUCACCCAUGUUGAUCGUGAGUUGCUUCCAGGUAGGUCGCCGUUACCUAA [Erorve]” are within 1.5-fold of each other in “apparent KD of MS2 coat protein” value: 28.1 nM for the first, 30.1 nM for the second.

“ACAUGAGGAUCACCCAUGUACAUAAGGGAAGGAGCGCGGUGAAACGCAGGUAGGUCGCCCAUAAUAACAAUAAAUAAAUUCAUGU [LeftA1]” and “ACACCGAAAGGUGCAUUUUCCUUUUCAGAUACCAGACUUUACGUUGUCCCUUGGCAGCUGUAUCACAUGAGGAUCACCCAUGUUG [JR_SSTheophyA_Sub012]” are within 1.5-fold of each other in “apparent KD of MS2 coat protein” value: 19.8 nM for the first, 16 nM for the second.

Going from “UCGGGCAGAGCGGCCGCCACUGUUUGGCGUGCGGAUGAAGGAACAUGAGGAUCACCCAUGUAGAUUAGGACCGGGCUUGCGGAGA [ddrmullin]” to “ACGUAAUGCAGAAGGAGCGUCUUUUUAAAACAUGAGGAUCACCCAUGUAAUAUUUAUGGGAGACAGGUAGGUCGCUGAAGUACGA [JR_SSArginiB_Sub006]”, the “apparent KD of MS2 coat protein” value rises from 8.61 nM to 30.3 nM (3.5-fold).

Compared with “UGUAAAAUAACAGAUACCAGCGUGUUAUAAAACAUGAGGAUCACCCAUGUAGUGAUCAAGCGCCCUUGGCAGCUGGUAUUUUAUG [7.D]”, “AGACAUGAGGAUCACCCAUGUAGUACGGAUACCAGAUCCAGAUGCGUCCCUUGGCAGCUGUAGUACAGCGUUACGUCGCUCAUAG [Exclusion - Theophylline A (Freestyle 26)]” is 5.2-fold lower in “apparent KD of MS2 coat protein” value: 105 nM for the first, 20.3 nM for the second.

First: ACAUGAGGAUCACCCAUGUCAUGAGGUUCACGAGGACCGGUACGGCCGCCACUCGGGCUUCGGAUCACGGAUGUACAUGAUGAUC [kmullin1]
Second: ACAUGAGGAUCACCCAUGUAAGGUCUUGAUACCAGACGAGAAGUAGUCCCUUGGCAGCAAAUACGUGAGGGUCACACAUGUGUAA [edsmullin]
The “apparent KD of MS2 coat protein” value of the first is 2.1-fold higher: 45.4 nM for the first, 21.6 nM for the second.

“UGUCAAUCGCCGGAUACCAGCCUAACUGAAGGAAAUCUAAACAUGAGGAUCACCCAUGUAGGCCCUUGGCAGCCGAGUAAGUACA [theeternabot_exclusion_MS2_Theo_B_15]” and “GGGUCAGGCGCGGCCGCCACUGCGGUGAUGUGACAUGAGGAUCACCCAUGUUGUCAUGUGGCACAUAGGACCGGGUGCCUGGCCC [#1 Exclusion - Tryptophan B Attempt #6 (HarryS)]” are within 1.5-fold of each other in “apparent KD of MS2 coat protein” value: 33.9 nM for the first, 28.3 nM for the second.

Compared with “CGUAGGAUCGUGGAUACCAGUACCGCCCACGACAUGAGGAUCACCCAUGUAGGUAAUCUUUACCCUUGGCAGCCAUUUUUUUCUG [theeternabot_sameState_MS2_Theo_B_14]”, “ACUCGGUGUUUGUUGCUCCGAGUUUAUGAUACCAGUUAGUUUUAUGGCCCUUGGCAGCAUAGGACAUGAGGAUCACCCAUGUGUU [#03 SameState-TheophyllineA]” is 1.6-fold lower in “apparent KD of MS2 coat protein” value: 41 nM for the first, 26.2 nM for the second.

“CGUGAUCCCUGUGAUACCAGAAGUACAUGAGGAUCACCCAUGUCAAACACAAAACCAAGCUUCCCUUGGCAGCAUAGUCGUUAAG [Esmaenbiza]” and “UGAACAUGAGGAUCACCCAUGUAGUCAGAUACCAGACACUGCAUGGUCCCUUGGCAGCUGAAGAGCGUUUGCCAAAUAACGUUCA [Theo A SS t4]” are within 1.5-fold of each other in “apparent KD of MS2 coat protein” value: 67.1 nM for the first, 52 nM for the second.

First: CUCAUCCACGCGGCCGCCACUAUAUUGUGGUGUGAGUGUGACGUAUUACAUGAGGAUCACCCAUGUAGGACCGGGCGUGGAUGAG [#06 Exclusion Tryptophan B]
Second: AGCAGUACAACAGAUACCAGACUUUUAAUGCCUCUAAUUACAUGAGGAUCACCCAUGUUUGUCCCUUGGCAGCUGUUGUACUGCA [JR_ExcTheophyB_Sub010]
The “apparent KD of MS2 coat protein” value of the first is 2.3-fold lower: 30.9 nM for the first, 72.4 nM for the second.

“AAUAACAUGAGGAUCACCCAUGUAAGUAAACGAGGACCGGUACGGCCGCCACUCGAAUAAAUAAAGUACCGGUAAGAUCCAGGGA [Default title]” and “AUAGUCUAGAGUGAUACCAGACAACAUGAGGAUCACCCAUGUAGCAUAUGGUUAUCAUGAGUCCCUUGGCAGCACGCAUGUAUAG [JR_ExcTheophyB_Sub012]” are within 1.5-fold of each other in “apparent KD of MS2 coat protein” value: 14.6 nM for the first, 13.4 nM for the second.

Going from “UAAAUAAUCUGGGUGUAGGUAAUAACAGAUACCAGCCAGAUAACUGGCCCUUGGCAGCUGAAAACAUGAGGAUCACCCAUGUAAA [Mat - Same State Theophlline A - Mod of Eli - D19]” to “UUCGUUUGCGGAAGGAGCGACGGACAUCGGUGAACGACGGACAUGAGGAUCACCCAUGUACGUCAGGUAGGUCGCCGCUAAGAGU [Enbiceri]”, the “apparent KD of MS2 coat protein” value falls from 58.3 nM to 13.7 nM (4.3-fold).

First: ACACGGAAUGAUGGAUCACCUCGUGAAUCACGAGGACCGGUACGGCCGCCACUCGAAAACCGUGACCUGUACGAAAAGUGCAGGA
Second: AAUAAACAUGAGGAUCACCCAUGUAGGGUGCGAGGACCGGUACGGCCGCCACUCGGGUGAAAACAUGAAAAUCACCCAUGUAAAA [Mat - Exclusion - Trytophan A - D24]
The “apparent KD of MS2 coat protein” value of the first is 2.8-fold higher: 322 nM for the first, 113 nM for the second.

“AGACAUGAGGAUCACCCAUGUAGUACGGAUACCAGAUCCAGAUGUAUCCCUUGGCAGCUGUGGUACAGCGUUACAUCGCUCCUAG [Exclusion - Theophylline A (Freestyle 20)]” and “GUAUGGAAACAUACUAGGGUAUCGUGAGAUACCAGUACAGAAAUGUACCCUUGGCAGCUCGCGCAUACAUGAGGAUCACCCAUGU [Ex Theophylline A 9]” are within 1.5-fold of each other in “apparent KD of MS2 coat protein” value: 15.9 nM for the first, 19.4 nM for the second.

Compared with “AGGUGCGGCACGGCCGCCACUGCGGUGGUGUGACAUGAGGAUCACCCAUGUUGUCAUGCGGCCCUUAGGACCGGGUGGCGUGCCU [#1 Exclusion - Tryptophan B Attempt #16 (HarryS)]”, “GGUGGCGUGACGGAUACCAGCCACCACCGUUAGACCACAUGAGGAUCACCCAUGUUGGGUGGCCCUUGGCAGCUGUCGUGCGGCG [#1 Same State - Theophylline B Attempt #18 (HarryS)]” is 5-fold higher in “apparent KD of MS2 coat protein” value: 27.9 nM for the first, 140 nM for the second.

“UUAUUUAUAAAUGAUACCAGCCGAUUGGCCGCAAAUCCUAACAUGAGGAUCACCCAUGUCGGCCCUUGGCAGCAUUUAUGGGUUU [XTheo B #28]” and “ACUUUGUCGGGUGAUACCAGCCUCGGCACAUCUCGUGCCGAACAUGAGGAUCACCCAUGUGGCCCUUGGCAGCACAUGACAAAUC [Isredior]” are within 1.5-fold of each other in “apparent KD of MS2 coat protein” value: 56 nM for the first, 70.1 nM for the second.

In the case of “ACAUGAGGAUCACCCAUGUAUUACCGGGAAGGAGCGCGUAAGGACGCAGGUAGGUCGCUCGGCGUCGUGCUGUAAAGCACGACGA [#1 Same State - Arginine A Attempt #24 (HarryS)]”, the “apparent KD of MS2 coat protein” value is reported as 67.7 nM.
